Measurements as given in US20020127702A1 (University of California, published 2002).

B1: hCdc5 putative nuclear localization domain (amino acids 205-358), His6 fusion (other)
chain: KRGVDYNAEIPFEKKPALGFYDTSEENYQALDADFRKLRQQDLDGELRSEKEGRDRKKDKQHLKRKKESDLPSAILQTSGVSEFTKKRSKLVLPAPQISDAELQEVVKVGQASEIARQTAEESGITNSASSTLLSEYNVTNNSVALRTPRTPAS
notes: Expressed and purified in E. coli as a His6 fusion; not shown: His6 tag
B2: hCdc5 central domain (amino acids 365-501), His6 fusion (other)
chain: EAQNLMALTNVDTPLKGGLNTPLHESDFSGVTPQRQVVQTPNTVLSTPFRTPSNGAEGLTPRSGTTPKPVINSTPGRTPLRDKLNINPEDGMADYSDPSYVKQMERESREHLRLGLLGLPAPKNDFEIVLPENAEKE
notes: as for B1
B3: hCdc5 DNA binding domain (amino acids 1-120), His6 fusion (other)
chain: MPRIMIKGGVWRNTEDEILKAAVMKYGKNQWSRIASLLHRKSAKQCKARWYEWLDPSIKKTEWSREEEEKLLHLAKLMPTQWRTIAPIIGRTAAQCLEHYEFLLDKAAQRDNEEETTDDP
notes: Expressed and purified in E. coli as a His6 fusion; also called helix-turn-helix domain; not shown: His6 tag

Tests used:
[1] = biological target: the molecule itself; experiment: glutaraldehyde cross-linking of purified His6 fusion, SDS-PAGE and anti-His immunoblot
[2] = biological target: the molecule itself; experiment: glutaraldehyde cross-linking of purified His6 fusion
[3] = biological target: B1; experiment: glutaraldehyde cross-linking of purified His6 fusions
[4] = biological target: B3; experiment: as above
[5] = biological target: B2; experiment: as above

| Binder | binding result [1] | binding result [2] | binding result [3] | binding result [4] | binding result [5] |
| --- | --- | --- | --- | --- | --- |
| B1 | binds |  |  |  |  |
| B2 |  | no binding | no binding |  |  |
| hCdc5 carboxyl terminal domain (amino acids 491-802), His6 fusion (other, Expressed and purified in E. coli as a His6 fusion; not shown: His6 tag) EIVLPENAEKELEEREIDDTYIEDAADVDARKQAIRDAERVKEMKRMHKAVQKDLPRPSEVNTEILRPLNVEPPLTDLQKSEELIKKEMITMLHYDLLHHPYEPSGNKKGKTVGFGTNNSEHITYLEHNPYEKFSKEELKKAQDVLVQEMEVVKQGMSHGELSSEAYNQVWEECYSQVLYLPGQSRYTRANLASKKDRIESLEKRLEINRGHMTTEAKRAAKMEKKMKILLGGYQSRAMGLMKQLNDLWDQIEQAHLELRTFEELKKHEDSAIPRRLECLKEDVQRQQEREKELQHRYADLLLEKETLKSKF |  | no binding | no binding | no binding | no binding |
| B3 | binds |  | no binding |  | no binding |
